Laboratory results reported in patent US20130195901A1.

Biological target: HLA-A*0201 class I monomer of the iTopia Epitope Discovery System
Experiment: iTopia binding ED50
Conditions: modification not given

EC50: 524 nM
B1: PSMA 288-297 (L289(Nle), I297(Nle)) (peptide)
chain: YLSEKIFYV
